Assay results as given in patent publication US20230095004 (Aptitude Medical Systems, Inc., published 2023).

T1: VEGF-165 (VEGF-A) (Homo sapiens)
T1 chain: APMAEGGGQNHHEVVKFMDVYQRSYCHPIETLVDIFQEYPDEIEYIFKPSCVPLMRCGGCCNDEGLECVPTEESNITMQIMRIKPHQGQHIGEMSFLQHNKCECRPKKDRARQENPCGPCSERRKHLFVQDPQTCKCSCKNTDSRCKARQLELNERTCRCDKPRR

B1: AMS0433.0 (ssRNA)
RNA: ACCCUUGCUUGCGUAGCAUUUUACCAGUGAGUCGGAUCUC
modifications: 2'-F all
B2: AMS0433.2 (ssRNA)
RNA: UGCCAGUGAGUCGGAUCUCCGCAUAUCUGCGCGCAUAUCUGCG
modifications: 2'-F all
B3: AMS0433.21 (ssRNA)
RNA: GCUGUACAGCUUUUACCAGUGAGUCGGAUCUCCGCAUAUCUGCG
modifications: 2'-F all
B4: AMS0433.6 (ssRNA)
RNA: CCCCAUCUGCGAAGCAGUCAGCCAGUGAGUCGGAUCUCCGCAUAUCUGCG
modifications: 2'-F all
B5: AMS0433.16 (ssRNA)
RNA: UUUUACCAGUGAGUCGGAUCUCUGCAUGCA
modifications: 2'-F all
B6: AMS0433.15 (ssRNA)
RNA: ACCCUUGCUUGCGUAGCAUUUUACCAGUGAGUCGGAUCUCUGCAUGCA
modifications: 2'-F all
B7: AMS0433.5 (ssRNA)
RNA: CACCAUGCUUGCGUAGCAUCAUCCAGUGAGUCGGAUCUCCGCAUAUCUGCG
modifications: 2'-F all
B8: AMS0433.17 (ssRNA)
RNA: UGCACUGCAUUUUACCAGUGAGUCGGAUCUCCGCAUAUCUGCG
modifications: 2'-F all
B9: AMS0433.7 (ssRNA)
RNA: CACAGAGAACUGUGUGCCAGUGAGUCGGAUCUCCGCAUAUCUGCG
modifications: 2'-F all
B10: AMS0433.11 (ssRNA)
RNA: CACAGAGAACUGUGCCUAGCAUUUUGCCAGUGAGUCGGAUCUCCGCAUAUCUGCG
modifications: 2'-F all
B11: AMS0433.1 (ssRNA)
RNA: ACCCUUGCUUGCGUAGCAUUUUACCAGUGAGUCGGAUCUCCGCAUAUCUGCG
modifications: 2'-F all
B12: AMS0433.3 (ssRNA)
RNA: ACCCUUGCUUGCGUAGCAUUCUGCCAGUGAGUCGGAUCUCCGCAUAUCUGCG
modifications: 2'-F all
B13: AMS0433.4 (ssRNA)
RNA: ACCCUUGCUUGCGCAGCAUUCUGCCAGUGAGUCGGAUCUCCGCAUAUCUGCG
modifications: 2'-F all
B14: AMS0433.10 (ssRNA)
RNA: UGCCAGUGAGUCGGAUCUCCUGUGAGAACACAG
modifications: 2'-F all
B15: AMS0433.19 (ssRNA)
RNA: CUGUACAGUUUUACCAGUGAGUCGGAUCUCCGCAUAUCUGCG
modifications: 2'-F all
B16: AMS0433.13 (ssRNA)
RNA: UUUUGUGCUUGCGUAGCAACCCUCCAGUGAGUCGGAUCUCCGCAUAUCUGCG
modifications: 2'-F all
B17: AMS0433.8 (ssRNA)
RNA: CGUAGCAUUUUGCCAGUGAGUCGGAUCUCCGCAUAUCUGCG
modifications: 2'-F all
B18: AMS0433.18 (ssRNA)
RNA: UGCAUCUGCAUUUUACCAGUGAGUCGGAUCUCCGCAUAUCUGCG
modifications: 2'-F all
B19: AMS0433.20 (ssRNA)
RNA: UUUUGCAUGCAUUUUACCAGUGAGUCGGAUCUCCGCAUAUCUGCG
modifications: 2'-F all
B20: AMSB107.1 (ssRNA)
RNA: UGCCAGUGAGUCGGAUCUCCGCAUAGAUAAGCCAACAAACGUACAUUCUCUGUUAGUAUUUUCUGCG
modifications: 2'-F all
B21: AMSB107.6 (ssRNA)
RNA: UGCAUGCAACCAGUGAGUCGGAUCUCCGCAUAGAUAAGCCAACAAACGUACAUUCUCUGUUAGUAUUUUCUGCG
modifications: 2'-F all
B22: AMSB107.5 (ssRNA)
RNA: AUGCAUGCAUUUUUACCAGUGAGUCGGAUCUCCGCAUAGAUAAGCCAACAAACGUACAUUCUCUGUUAGUAUUUUCUGCG
modifications: 2'-F all
B23: AMSB107.15 (ssRNA)
RNA: UGCAUCUGCAUUUUACCAGUGAGUCGGAUCUCCGCAUAGAUAAGCCAACAAACGUACAUUCUCUGUUAGUAUUUUCUGCG
modifications: 2'-F all
B24: AMSB107.13 (ssRNA)
RNA: CCGGUACCGGUUUUACCAGUGAGUCGGAUCUCCGCAUAGAUAAGCCAACAAACGUACAUUCUCUGUUAGUAUUUUCUGCG
modifications: 2'-F all
B25: AMSB107.17 (ssRNA)
RNA: GCUGUACAGCUUUUACCAGUGAGUCGGAUCUCCGCAUAGAUAAGCCAACAAACGUACAUUCUCUGUUAGUAUUUUCUGCG
modifications: 2'-F all
B26: AMSB107.10 (ssRNA)
RNA: UGCAUGCAUUUUUUACCAGUGAGUCGGAUCUCCGCAUAGAUAAGCCAACAAACGUACAUUCUCUGUUAGUAUUUUCUGCG
modifications: 2'-F all
B27: AMSB107.14 (ssRNA)
RNA: UGCACUGCAUUUUACCAGUGAGUCGGAUCUCCGCAUAGAUAAGCCAACAAACGUACAUUCUCUGUUAGUAUUUUCUGCG
modifications: 2'-F all
B28: AMSB107.11 (ssRNA)
RNA: UGCAUGCAUUUUCCAGUGAGUCGGAUCUCCGCAUAGAUAAGCCAACAAACGUACAUUCUCUGUUAGUAUUUUCUGCG
modifications: 2'-F all
B29: AMSB107.4 (ssRNA)
RNA: GCAUGCUUUUACCAGUGAGUCGGAUCUCCGCAUAGAUAAGCCAACAAACGUACAUUCUCUGUUAGUAUUUUCUGCG
modifications: 2'-F all
B30: AMSB107.9 (ssRNA)
RNA: UGCAUGCAUUACCAGUGAGUCGGAUCUCCGCAUAGAUAAGCCAACAAACGUACAUUCUCUGUUAGUAUUUUCUGCG
modifications: 2'-F all
B31: AMSB107.2 (ssRNA)
RNA: UGCCAGUGAGUCGGAUCUCCACAGUAGAUAAGCCAACAAACGUACAUUCUCUGUUAGUAUUUUCCUGUG
modifications: 2'-F all
B32: AMSB107.12 (ssRNA)
RNA: CUGUACAGUUUUACCAGUGAGUCGGAUCUCCGCAUAGAUAAGCCAACAAACGUACAUUCUCUGUUAGUAUUUUCUGCG
modifications: 2'-F all
B33: AMSB107.20 (ssRNA)
RNA: UGCAUGCAUUUUACCAGUGAGUCGGAUCUCCGCAUAGAUAAGCCAACAAACGUACAUUCUCUGUUAGUAUUUUCUGCG
modifications: 2'-F with LNA (L) in stems as printed
B34: AMSB107.18 (ssRNA)
RNA: UGCAUGCAUUUUACCAGUGAGUCGGAUCUCCGCAUAGAUAAGCCAACAAACGUACAUUCUCUGUUAGUAUUUUCUGCG
modifications: 2'-F with LNA (L) at positions as printed
B35: AMSB107.21 (ssRNA)
RNA: UGCAUGCAUUUUACCAGUGAGUCGGAUCUCCGCAUAGAUAAGCCAACAAACGUACAUUCUCUGUUAGUAUUUUCUGCG
modifications: 2'-F with 2'-OMe in stems as printed
B36: AMSB107.8 (ssRNA)
RNA: UUUUGCAUGCAUUUUACCAGUGAGUCGGAUCUCCGCAUAGAUAAGCCAACAAACGUACAUUCUCUGUUAGUAUUUUCUGCG
modifications: 2'-F all

Molecular target: T1, VEGF-165 (VEGF-A)
Assay: competition; VEGFR2 blocking ELISA, PBSMCT, 37 C
Settings: tags: R&D Systems 293-VE-050; chain copies: 2
Work on B1 yielded an IC50 of 27.5 nM.
For B2, the IC50 was 9.26 nM.
Work on B3 yielded an IC50 of 0.064 nM.
Binder B4 has an IC50 of 3.49 nM.
In the case of B5, the IC50 is reported as 1.2 nM.
For B6, the IC50 was 2.17 nM.
Binder B7 has an IC50 of 2.5 nM.
In the case of B8, the IC50 is reported as 0.983 nM.
B9 was tested, and the IC50 was 8.23 nM.
For B10, the IC50 was 29.5 nM.
Work on B11 yielded an IC50 of 1.73 nM.
B12 gave an IC50 of 2.1 nM.
Binder B13 has an IC50 of 1.96 nM.
With B14 the IC50 was 27.2 nM.
B15 gave an IC50 of 0.056 nM.
Binder B16 has an IC50 of 12.3 nM.
B17 showed an IC50 of 42.9 nM.
Work on B18 yielded an IC50 of 8.34 nM.
B19 gave an IC50 of 0.044 nM.

Molecular target: T1, VEGF-165 (VEGF-A)
Assay: competition; VEGF/VEGFR2 inhibition
Settings: tags: R&D Systems 293-VE-050; chain copies: 2
For B20, the IC50 was 21.5 nM.
Binder B21 has an IC50 of 0.551 nM.
With B22 the IC50 was 0.081 nM.
B23 showed an IC50 of 15.6 nM.
In the case of B24, the IC50 is reported as 1 nM.
B25 was tested, and the IC50 was 0.083 nM.
With B26 the IC50 was 0.17 nM.
B27 showed an IC50 of 3.27 nM.
Work on B28 yielded an IC50 of 0.114 nM.
For B29, the IC50 was 0.081 nM.
Work on B30 yielded an IC50 of 0.147 nM.
B31 showed an IC50 of 19.4 nM.
Binder B32 has an IC50 of 1.03 nM.
With B33 the IC50 was 0.068 nM.
B34 was tested, and the IC50 was 0.422 nM.
B35 was tested, and the IC50 was 0.063 nM.
B36 was tested, and the IC50 was 0.255 nM.
